The values that follow come from patent US20020004485A1.

The target of assay [1] is MC receptor endogenous to Xenopus laevis melanophores (Xenopus laevis). The assay is described as follows: Schild plot; antagonism of α-MSH pigment dispersion in Xenopus melanophores (functional).
The target in assay [2] is human MCR-3 receptor (human) (UniProt P41968). The assay is described as follows: cell-based or functional assay.
Assay [3] addresses human MCR-1 receptor (human) (UniProt Q01726). Kind of assay: cell-based or functional assay.
The target in assay [4] is human MCR-4 receptor (human) (UniProt P32245). Kind of assay: cell-based or functional assay.
The target in assay [5] is ACTH (MCR-2) receptor endogenous to murine Y1 adrenocortical cells (murine) (UniProt Q64326). Kind of assay: cell-based or functional assay.
Assay [6] deals with MC receptor endogenous to Xenopus laevis melanophores (Xenopus laevis). The assay is described as follows: cell-based or functional assay.
The target of assay [7] is atypical MC receptor of Cos-7 cells. Kind of assay: cell-based or functional assay.
Assay [8] has the same target. Kind of assay: estimated from the shift of the α-MSH cAMP curve in Cos-7 cells (functional).

Chain of ACTH (MCR-2) receptor endogenous to murine Y1 adrenocortical cells (murine) (Q64326 whole entry): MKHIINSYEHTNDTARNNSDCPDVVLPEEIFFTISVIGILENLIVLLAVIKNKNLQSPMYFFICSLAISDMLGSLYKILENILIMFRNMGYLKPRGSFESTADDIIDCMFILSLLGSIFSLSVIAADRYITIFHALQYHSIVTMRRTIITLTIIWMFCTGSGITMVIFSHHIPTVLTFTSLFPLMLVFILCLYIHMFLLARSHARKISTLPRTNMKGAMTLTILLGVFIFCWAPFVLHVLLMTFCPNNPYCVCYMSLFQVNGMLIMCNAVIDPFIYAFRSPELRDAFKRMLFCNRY
Chain of human MCR-3 receptor (human) (P41968 whole entry): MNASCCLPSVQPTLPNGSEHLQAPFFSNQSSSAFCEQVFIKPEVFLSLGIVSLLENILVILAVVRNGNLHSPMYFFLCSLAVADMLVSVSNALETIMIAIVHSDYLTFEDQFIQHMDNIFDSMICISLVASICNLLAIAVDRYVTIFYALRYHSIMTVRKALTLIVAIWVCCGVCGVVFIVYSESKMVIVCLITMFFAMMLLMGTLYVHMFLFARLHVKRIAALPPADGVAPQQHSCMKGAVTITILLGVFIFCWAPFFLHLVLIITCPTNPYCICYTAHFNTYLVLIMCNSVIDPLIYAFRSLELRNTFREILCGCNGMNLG
Chain of human MCR-1 receptor (human) (Q01726 whole entry): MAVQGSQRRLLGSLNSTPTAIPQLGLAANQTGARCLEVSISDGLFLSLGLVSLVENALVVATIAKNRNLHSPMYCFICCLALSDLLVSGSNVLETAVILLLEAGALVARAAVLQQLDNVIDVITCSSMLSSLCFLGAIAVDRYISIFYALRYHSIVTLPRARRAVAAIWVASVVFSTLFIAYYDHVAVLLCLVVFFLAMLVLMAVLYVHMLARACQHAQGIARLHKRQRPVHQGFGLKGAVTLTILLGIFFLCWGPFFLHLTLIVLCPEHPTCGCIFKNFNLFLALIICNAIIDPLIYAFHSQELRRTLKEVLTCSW
Chain of human MCR-4 receptor (human) (P32245 whole entry): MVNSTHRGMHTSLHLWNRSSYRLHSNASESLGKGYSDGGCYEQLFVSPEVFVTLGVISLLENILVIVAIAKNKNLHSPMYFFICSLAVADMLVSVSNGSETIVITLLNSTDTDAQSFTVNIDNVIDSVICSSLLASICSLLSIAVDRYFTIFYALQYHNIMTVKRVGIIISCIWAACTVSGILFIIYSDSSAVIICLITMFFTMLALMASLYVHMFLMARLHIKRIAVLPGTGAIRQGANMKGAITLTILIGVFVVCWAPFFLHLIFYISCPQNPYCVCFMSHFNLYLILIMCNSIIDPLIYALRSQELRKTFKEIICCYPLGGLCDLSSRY

Substance “dynorphin A(2-13) (from UniProt P01213 176-187) (peptide)” had a Ki in assay [1] of 79 nM. Further, the dose ratio of α-MSH dose-response curves with and without 30 µM dynorphin A(2-13), MCR-3 in assay [2] stood at 128. Also, the dose ratio of α-MSH dose-response curves with and without 30 µM dynorphin A(2-13), MCR-1 in assay [3] worked out at 250. Further, the dose ratio of α-MSH dose-response curves with and without 30 µM dynorphin A(2-13), MCR-4 in assay [4] came out at 147. For the same substance, in assay [5], the EC50 of ACTH-(1-24) in the presence of 30 µM dynorphin A(2-13) is 28 nM and the fold shift to the right of the concentration-response curve of ACTH-(1-24) at 30 µM was determined as 15 fold.
The substance “dynorphin A(1-13)-NH2 (from UniProt P01213 207-219) (peptide)” yielded a Ki in assay [1] of 71 nM. Also, in assay [2], the EC50 of α-MSH in the presence of 30 µM dynorphin A(1-13)-NH2, MCR-3 was 1600 nM. Moreover, the EC50 of α-MSH in the presence of 30 µM dynorphin A(1-13)-NH2, MCR-1 in assay [3] was determined as 2100 nM. This substance yielded an IC50 nM in Frog Melanophore Assay in assay [6] of 145 nM. In addition, the EC50 of α-MSH in the presence of 30 µM dynorphin A(1-13)-NH2, MCR-4 in assay [4] came to 2000 nM. Further, the fold shift of the α-MSH EC50 by 30 µM dynorphin A(1-13)-NH2 in assay [7] was 50 fold. Besides, the Kd in assay [8] is 1000 nM.
Turning to urocortin (peptide), the IC50 in the frog MCR assay in assay [6] was more than 10000 nM.
For “neurotensin(8-13) analog, D-Arg-Arg-Pro-Trp-Ile-Leu (peptide)”, the IC50 in the frog MCR assay in assay [6] was more than 10000 nM.
In assay [1], “p-anisoyl-[D-Arg^6,9, D-Lys^11, D-Leu^12] dynorphin A(6-12)-NH2 (peptide)” yielded a Ki of 12 nM and a pKi of 7.91.

By Ki is commonly meant a measure of affinity in units of concentration, obtained from inhibition or displacement. Read a low Ki as tighter binding. As usually defined, the Kd is the concentration at which binding is half-saturated. As usually defined, the pKi is the negative decadic logarithm of the Ki, by convention in mol/L.
